Source: CN101875694A

Target: 重组人肿瘤坏死因子TNFα (Recombinant Human TNF-α, Peprotech Asia, Cat 300-01A) (human) (UniProt P01375)
Test: cell-based or functional assay

UniProt P01375, sequence (P01375 77-233 limits assumed): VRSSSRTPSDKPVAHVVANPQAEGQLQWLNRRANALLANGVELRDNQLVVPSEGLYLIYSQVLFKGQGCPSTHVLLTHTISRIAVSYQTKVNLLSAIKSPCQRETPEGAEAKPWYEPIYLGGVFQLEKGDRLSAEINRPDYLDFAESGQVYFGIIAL

小鼠存活率, C57BL/6 given 1μg rhTNFα and D-galactosamine, 5μg antibody: 0%
Substance: 野生型全长的D2E7抗体 (full-length wild-type D2E7) (antibody)
